# Results as given in patent publication US20140370024A1 (IMPERIAL INNOVATIONS, published 2014).
# B1: Sulfo-EMCS cross-linker-conjugated biotinylated TLQP-21 (peptide)
# peptide: TLQPPASSRRRHFHHALPPARC
# modifications: biotin covalently attached via the amide bond at the N-terminus; Sulfo-EMCS cross-linker conjugated via the sulphydryl group of the extra cysteine at the C-terminus
# notes: Used for chemical cross-linking to rat membrane fractions; also called crosslinker-conjugated TLQP-21; Sulfo-EMCS-conjugated TLQP-21
# Target: T1, gC1qR, the receptor of the globular part of the complement protein C1q, from rat brain membrane fractions (rat, UniProt O35796 72-279)
# T1 construct: also called ~30 kDa band
# T1 sequence (looked up): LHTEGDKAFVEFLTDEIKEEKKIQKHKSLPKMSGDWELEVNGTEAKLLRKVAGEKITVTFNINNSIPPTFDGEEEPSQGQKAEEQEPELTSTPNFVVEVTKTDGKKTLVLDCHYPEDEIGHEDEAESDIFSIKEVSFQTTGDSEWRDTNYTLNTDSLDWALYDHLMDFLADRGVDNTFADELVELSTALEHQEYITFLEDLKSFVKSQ
# Assay: chemical cross-linking to rat brain membrane fraction, Tricine-PAGE, Western blot with streptavidin-HRP; band identified as gC1q-R by LC-MS/MS
# Protocol: The reaction was terminated using 50 mM Tris buffer, and samples were ethanol precipitated and resolved using Tricine-PAGE and visualised by Western blot analysis by streptavidin-horse radish peroxidase. A clear band at ˜30 kDa (indicated by an arrow) was observed following chemical crosslinking using biotinylated TLQP-21., which was many orders of magnitude greater than the corresponding band in the membrane control lane using unconjugated Sulfo-EMCS cross-linker. b, Membrane fractions of P4 rat brain was applied to either monomeric avidin column attached with TLQP-21 or monomeric avidin column only (“Negative control”). Following considerable washes, proteins bound to the columns were eluted and resolved on SDS-PAGE, followed by silver staining. A ˜30 kDa band (arrow) was apparent in the elutant from the TLQP-21-attached column. C, The ˜30 kDa band was analysed by LC-MS/MS Orbitrap following trypsinisation.
# Ccl11 has been linked to inflammation²³, while Cxcl9 is known as a natural antagonist to Ccl11 receptor CCR3²⁴. We then used Sulfo-EMCS-conjugated TLQP-21 to purify and identify receptor(s) for TLQP-21. […] The membrane fractions of rat brain was incubated with the crosslinker-conjugated TLQP-21, and analysed by Tricine-PAGE and Western blotting using Streptavidin-HRP for the biotin tag on TLQP-21.
binder,measurement,value
B1,binding result,binds
